Results published in patent US6861508B2, “Transcriptional intermediary factor-2” (Institut National de la Sante et de la Recherche Medicale, priority 1996, dated 2005).
Changes are numbered by the printed parent chain.

T1: TIF2.1 (TIF2 amino acids 624 to 1287) (human, UniProt Q15596 624-1287)
T1 construct: Form without a stated tag: expression-library clone, expressed in Cos cells from pSG5, or in-vitro-translated; also called cytoplasmic TIF2.1 polypeptide
T1 sequence: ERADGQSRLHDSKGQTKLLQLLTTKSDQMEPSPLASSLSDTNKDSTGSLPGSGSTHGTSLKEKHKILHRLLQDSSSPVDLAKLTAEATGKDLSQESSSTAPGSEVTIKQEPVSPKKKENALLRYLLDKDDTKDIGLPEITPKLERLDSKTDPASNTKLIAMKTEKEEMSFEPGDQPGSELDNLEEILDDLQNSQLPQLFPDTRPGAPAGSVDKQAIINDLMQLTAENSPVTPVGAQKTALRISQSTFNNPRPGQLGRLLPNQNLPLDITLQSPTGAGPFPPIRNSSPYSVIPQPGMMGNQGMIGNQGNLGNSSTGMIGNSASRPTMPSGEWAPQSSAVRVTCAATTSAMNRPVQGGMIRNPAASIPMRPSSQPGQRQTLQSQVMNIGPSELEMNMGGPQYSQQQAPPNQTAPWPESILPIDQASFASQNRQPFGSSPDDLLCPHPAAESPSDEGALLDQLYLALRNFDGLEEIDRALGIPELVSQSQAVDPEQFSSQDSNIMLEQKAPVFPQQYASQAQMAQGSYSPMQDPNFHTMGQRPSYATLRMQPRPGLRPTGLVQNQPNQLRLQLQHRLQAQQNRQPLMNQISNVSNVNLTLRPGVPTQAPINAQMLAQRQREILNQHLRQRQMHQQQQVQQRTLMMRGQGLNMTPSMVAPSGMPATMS

T2: GST-hRARα(DEF) (pGEX2T-hRARα(DEF), amino acids 153-462) (human, UniProt P10276 153-462)
T2 construct: range 153-462; Bacterially produced; also called GST-RAR; GST-RARα(DEF); not shown: glutathione-S-transferase (GST) of pGEX2T (Pharmacia)
T2 sequence (looked up): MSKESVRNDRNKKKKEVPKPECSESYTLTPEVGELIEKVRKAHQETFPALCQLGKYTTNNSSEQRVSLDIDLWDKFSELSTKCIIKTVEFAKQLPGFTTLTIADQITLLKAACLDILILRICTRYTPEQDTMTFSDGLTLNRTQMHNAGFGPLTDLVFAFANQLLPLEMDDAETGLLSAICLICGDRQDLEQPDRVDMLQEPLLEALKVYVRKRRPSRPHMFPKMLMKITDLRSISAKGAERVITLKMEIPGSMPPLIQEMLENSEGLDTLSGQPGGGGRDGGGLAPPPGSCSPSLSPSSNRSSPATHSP

T3: (His)6-TIF2.1, E. coli-expressed purified recombinant TIF2.1 (human, UniProt Q15596 624-1287)
T3 construct: also called His-tagged TIF2.1; purified TIF2.1 protein; not shown: (His)6 tag of pET15b
T3 sequence: T1 sequence

B1: GST-mRXRα(DE) (pGEX2T-mRXRα(DE), amino acids 205-467) (receptor, mouse, UniProt P28700 205-467, looked up)
chain: MKREAVQEERQRGKDRNENEVESTSSANEDMPVEKILEAELAVEPKTETYVEANMGLNPSSPNDPVTNICQAADKQLFTLVEWAKRIPHFSELPLDDQVILLRAGWNELLIASFSHRSIAVKDGILLATGLHVHRNSAHSAGVGAIFDRVLTELVSKMRDMQMDKTELGCLRAIVLFNPDSKGLSNPAEVEALREKVYASLEAYCKHKYPEQPGRFAKLLLRLPALRSIGLKCLEHLFFFKLIGDTPIDTFLMEMLEAPHQAT
notes: range 205-467; also called GST-RXR; GST-RXRα(DE); not shown: glutathione-S-transferase (GST) of pGEX2T (Pharmacia)
B2: TIF2.1 m12 (LL→AA in NR box motifs I and II) (other)
chain: T1 sequence with L21A, L22A, L70A, L71A
notes: also called single intact NR box III
B3: TIF2.1 m13 (LL→AA in NR box motifs I and III) (other)
chain: T1 sequence with L21A, L22A, L125A, L126A
notes: also called single intact NR box II
B4: TIF2.1 m23 (LL→AA in NR box motifs II and III) (other)
chain: T1 sequence with L70A, L71A, L125A, L126A
notes: also called single intact NR box I
B5: GST-hTAFII18 (printed hTAFn18) (other, human, UniProt Q15543 1-124, looked up)
chain: MADEEEDPTFEEENEEIGGGAEGGQGKRKRLFSKELRCMMYGFGDDQNPYTESVDILEDLVIEFITEMTHKAMSIGRQGRVQVEDIVFLIRKDPRKFARVKDLLTMNEELKRARKAFDEANYGS
notes: not shown: glutathione-S-transferase (GST)
B6: TIF2.34: TIF2.5 C-terminally truncated to Pro775 (protein)
chain: MKLLSSIEQACDICRLKKLKCSKEKPKCAKCLKNNWECRYSPKTKRSPLTRAHLTEVESRLERLEQLFLLIFPREDLDMILKMDSLQDIKALLTGLFVQDNVNKDAVTDRLASVETDMPLTLRQHRISATSSSEESSNKGQRQLTVSERADGQSRLHDSKGQTKLLQLLTTKSDQMEPSPLASSLSDTNKDSTGSLPGSGSTHGTSLKEKHKILHRLLQDSSSPVDLAKLTAEATGKDLSQESSSTAPGSEVTIKQEPVSPKKKENALLRYLLDKDDTKDIGLPEITPKLERLDSKTDP
B7: TIF2.15: TIF2.13 with removal of 26 C-terminal amino acid residues (protein, UniProt Q15596 1011-1096, looked up, fragment)
chain: PSELEMNMGGPQYSQQQAPPNQTAPWPESILPIDQASFASQNRQPFGSSPDDLLCPHPAAESPSDEGALLDQLYLALRNFDGLEEI
B8: TIF2.18: TIF2.13 with removal of 20 N-terminal amino acid residues (protein, UniProt Q15596 1031-1122, looked up, fragment)
chain: NQTAPWPESILPIDQASFASQNRQPFGSSPDDLLCPHPAAESPSDEGALLDQLYLALRNFDGLEEIDRALGIPELVSQSQAVDPEQFSSQDS

What was measured:
[1] = target: T1, TIF2.1 (TIF2 amino acids 624 to 1287); assay: Far-Western blot with 32P-labelled NR LBD probe, agonist present
[2] = target: T2, GST-hRARα(DEF) (pGEX2T-hRARα(DEF), …); assay: in vitro GST interaction of TIF2.1 point mutants, with ligand, relative to TIF2.1 wild type
[3] = target: B1; assay: as above
[4] = target: T3, (His)6-TIF2.1, E. coli-expressed …; assay: GST interaction assay (not shown)
ER, RARα and RXRα LBDs = assay: GST pull-down of TIF2 polypeptides with NR LBDs; assay type: binding; details: in vitro, with or without 10^−6 M ligand
Method: (b) Mapping of the nuclear receptor-interacting domain of TIF2.
(c-d) Interaction of TIF2 NID mutants with NRs in vitro. […] For quantification of point mutant interactions, see below.
(e-f) Effect of TIF2 NID point mutations on stimulation of NR AF-2 activity. Cos-1 cells were cotransfected with 1 μg of the (17m)5-TATA-CAT reporter, 0.2 μg of GAL-hERα(EF) or GAL-mRXRα(DE), and 2.5 μg of the TIF2.1 wildtype or mutated fragments, as indicated. […] Each bar represents the mean value obtained from at least three (interaction) or at least four (transactivation) experiments, respectively; standard deviations are indicated. Note that the absolute values for TIF2.1 wildtype activity varied by ±16% when cotransfected with GAL-hERα(EF) and by ±34% when cotransfected with GAL-mRXRα(DE). In the in-vitro-interaction assays, the affinity of the TIF2.1 wildtype standard varied by less than ±25%. Expression levels of TIF2 mutants in the cells were verified by Western blot (not shown) with mouse monoclonal antibody 3Ti3F1, which is directed against an epitope outside the mutated area.
To further delineate the TIF2 NR interaction domain (NID), we studied the interaction between a series of TIF2 deletion mutants and the ER or RARα LBDs, using GST-fusion protein-based in vitro assays. In both cases, an NWD was mapped to the central region of TIF2 (amino acids 624-869 in mutant TIF2.5; see FIGS. 7a and b). No additional NWD could be identified in the N- or C-termini of TIF2 (FIGS. 7a and b; mutants TIF2.0, TIF2.2 and TIF2.7). Note that, in contrast, SRC-1, a paralogue of TIF2, apparently harbours two distinct non-contiguous NIDs located in the central and C-terminal regions (Onate, S. A. et al., Science 270:1354-1357 (1995), Yao, T. P. et al., Proc. Natl. Acad. Sci. USA 93:10626-10631 (1996); Zhu, Y. et al., Gene Epression 6:185-195 (1996)).

GAL4 reporter = assay: GAL4 DBD-TIF2 fusion CAT reporter transactivation assay; assay type: cell-based; details: Cos-1 and/or HeLa cells
Method: (a) HeLa cells were cotransfected with 1 μg (17m)5-βG-CAT and 10 μg GAL(1-147) or 1,3 and 10 μg GAL(1-147)-TIF2.1, respectively.
(c) Analysis of the transcriptional activity of GAL-TIF2 fusion proteins. Cos-1 and HeLa cells were transfected with 3 lag of plasmids expressing different regions of TIF2 fised to the DNA-binding domain of the yeast transcription factor GALA together with 1 μg of the (7m)5-G-CAT reporterplasmid. CAT assays were performed as described (Bocquel, M. T. et al., Nucl Acids Res. 17:2581-2595 (1989)). Quantitative data on CAT reporter expression were obtained either by phosphoimager analysis (BAS2000, Fuji) of ^14C-labeled CAT reaction products separated by thin-layer chromatography, or using the CAT ELISA Kit (Boehringer Mannheim). In all cases, CAT activities were normalized to the β-galactosidase concentrations resulting from cotransfection of 1 μg of pCMVPGal (gift from T. Lerouge) as internal control. Fold inductions above the GAL4 DBD value are indicated. The mean and standard deviation of at least three experiments are shown. A representative Western blot, illustrating the expression levels of the GAL4-TIF2 fusion proteins, expressed from 10 μg of the corresponding expression vectors, is shown on the left.
(b) Transcriptional activation of TIF2 AF-1 mutants. Cos-1 and HeLa cells were cotransfected with 3 μg of plasmids expressing different mutants of the TIF2 AF-1 fused to the DNA-binding domain of the yeast transcription factor GAL4 together with 1 μg of the (17m)5-G-CAT reporter plasmid. Fold inductions above the activation seen with the GAL4 DBD alone are indicated. The values represent the mean of at least three experiments.
(a) Transcriptional activation by TIF2.13 and TIF2.13 mutants. Cos-1 and HeLa cells were cotransfected with 3 μg of plasmids expressing the TIF2.13 region and the indicated TIF2.13 mutants fused to the DNA-binding domain of the yeast transcription factor GALA together with 1 μg of the (17m)5-G-CAT reporter plasmid. Fold inductions above the GAL4 DBD 1-fold value are indicated. The mean and standard deviation obtained from at least four experiments are shown. The expression levels of the GAL4-TIF2.13 fusion proteins were confirmed by western blotting (data not shown).
Transient transfections of HeLa and Cos-1 cells were performed as described (Gronemeyer et al., (1987); Bocquel, M. T. et al., Nucl. Acids Res. 17:2581-2595 (1989)).

Row | Molecule | times less efficient in NR interaction than the wild-type TIF2 [2] | times less efficient in NR interaction than the wild-type TIF2 [3] | also measured
1 | B1 | – | – | binding result [1]: binds
2 | B2 | 20 times less efficient than wild type | 20 times less efficient than wild type | –
3 | B3 | 5 times less efficient than wild type | 5 times less efficient than wild type | –
4 | B4 | 20 times less efficient than wild type | 20 times less efficient than wild type | –
5 | B5 | – | – | binding result [4]: no binding
6 | B6 | – | – | binding to NRs (ER, RARα LBDs) (ER, RARα and RXRα LBDs): interacted with ER and RARα LBDs in a ligand-dependent manner
7 | B7 | – | – | transcriptional activation of GAL4 reporter by GAL4 DBD fusion (GAL4 reporter): reduced transcriptional activity only weakly
8 | B8 | – | – | transcriptional activation of GAL4 reporter by GAL4 DBD fusion (GAL4 reporter): reduced transcriptional activity only weakly
